Experiments:
[1] = biological target: RSV F protein of subtype B (18537) on recombinant mKate-RSV (respiratory syncytial virus subtype B …, UniProt P13843 26-574); assay: cell-based or functional assay
[2] = biological target: RSV F protein of subtype A (strain A2) on recombinant mKate-RSV (respiratory syncytial virus subtype A …, UniProt P03420 26-574); assay: cell-based or functional assay
[3] = biological target: RSV F protein of subtype A (strain A2) on recombinant mKate-RSV virus (Respiratory syncytial virus subtype A …, UniProt P03420 26-574); assay: cell-based or functional assay
[4] = biological target: RSV F protein of subtype B (18537) on recombinant mKate-RSV virus (Respiratory syncytial virus subtype B …, UniProt P13843 26-574); assay: cell-based or functional assay
[5] = biological target: T1, RSV F subtype B, furin-cleaved ectodomain stabilized in the prefusion conformation (DS-Cav1) (Respiratory syncytial virus subtype B); assay: BLI, IgG on AHQ sensor, 100 nM antigen
T1 construct: extracellular domain; Trimeric soluble antigen; also called Prefusion subtype B

[6] = biological target: T2, RSV F subtype A, furin-cleaved ectodomain stabilized in the prefusion conformation (DS-Cav1) (Respiratory syncytial virus subtype A, UniProt P03420 26-524); assay: BLI, IgG on AHQ sensor, 100 nM antigen
T2 construct: extracellular domain; Trimeric soluble antigen; also called Prefusion subtype A

| Binder | Neut IC50 subtype B [1] [µg/mL] | Neut IC50 subtype A [2] [µg/mL] | Neut IC50 (µg/ml) subtype A [3] [µg/mL] | Neut IC50 (µg/ml) subtype B [4] [µg/mL] | Kd [5] [nM] | Kd [6] [nM] |
| --- | --- | --- | --- | --- | --- | --- |
| ADI-18986 (antibody, V domains shown) VH: EVQLLESGGGVVQPGKSLRLSCAASGFTFNTYAIHWVRQAPGKGLEWVAAISYDGSNEYYSNSVKGRFTISRDNSKYTLELQMNSLRPEDTAVYYCARGASYYYVSSDLGYWGQGTLVTVSS VL: QSVVTQPPSVSGAPGQRVTISCTGSSSNIGSGYDVHWYQQLPGTAPKVVIYGNINRPSGVPERFSGSKSGTSASLAITGLQAEDEADYYCQSYDSLSASWVFGGGTKLTVL | 0.123 | 0.464 |  |  |  |  |
| ADI-18988 (antibody, V domains shown) VH: EVQLVESGGGLVRPGGSLRLSCAASGFSLSSYGMSWVRQAPGKGLEWVSSITAGSSYINYADSVKGRFTISRDNAKSSLFLQMTSLRVEDTAVYFCVREAYASSSALYWFDPWGQGTLVTVSS VL: QSVLTQPPSVSGAPGQRVTISCTGSSSNLGAGYVVHWYQQLPGTSPKLLIYGNTDRPSGVPDRFSGSKSGTSASLAISGLQAEDEADYYCQSYDSSLSGWVFGGGTKLTVL | 0.37 | 0.089 |  |  |  |  |
| ADI-18978 (antibody, V domains shown) VH: EVQLVESGGGVVQPGRSLRLSCEASGFTFSSFSMHWVRQAPGKGLEWVAVILYDGSNQYYADSVKGRFTISRDNSKNTLYLQMNTLRAEDTAMYYCAKSSSSHVNSRQDKWGQGTLVTVSS VL: EIVLTQSPSTLSASVGDRVTITCRASQSISRWLAWYQQKPGEAPKLLIHTASTLESGVPSRFSGSGSGTEFTLTINSLQPDDLATYYCQQYYNWWTFGQGTKVEIK | > 10 | > 10 |  |  |  |  |
| ADI-18993 (antibody, V domains shown) VH: EVQLVESGGGLVKPGGSLRLSCAASGFTLSSYAMNWVRQAPGKGLEWVSSISAGSSYIDYADSVKGRFTISRDNAKNSLYLQMNNLRAEDTALYYCAREVLPATAIGGAWLDPWGQGTLVTVSS VL: QSVLTQPPSVSGAPGQTVTISCTGSSSNIGAGYDVHWYRQLPGTAPKLLIYSNNNRPSGVPDRFSGSKSDTSASLAITGLQAGDEADYYCQSYDISLSASYVFGTGTKVTVL | 0.128 | 0.078 |  |  |  |  |
| ADI-18983 (antibody, V domains shown) VH: EVQLVESGGGVVQPGRSLRLSCAASGFTFSSFSMHWVRQAPGKGLEWVALISSDERNSYYADSVKGRFTISRDNSKNTLYLQISRLKVEDTAVYYCAREAYEEWELTMGNLDHWGQGTLVTVSS VL: DIQLTQSPSSLSASVGDRVTITCRASQGIGNDLGWYQQKPGKAPKRLIYSTYSLQSGVPSRFSGSGSGTEFTLTISSLQPEDFATYYCLQHNRYPFTFGPGTKLEIK | 0.075 | 0.028 |  |  |  |  |
| ADI-18991 (antibody, V domains shown) VH: EVQLVESGPGLVKPSETLSLSCIVSGDSITSNDYYWSWIRQSPGKGLEWIGYIYHSGATFYTPSLRSRVTISTDRSKNQFSLRLSSVTAADTAVYYCASGPVGMATSNWFDPWGQGTLVTVSS VL: QPVLTQPPSVSVAPGKTATLTCGGDIIRTNSVNWYQQKPGQAPVLIIYYDSDRPSGIPGRFSASNSGSAATLTISRVEAGDEADYYCQVWDSSTDYHVVFGGGTKLTVL | 0.228 | 0.028 |  |  |  |  |
| ADI-18985 (antibody, V domains shown) VH: QVQLVQSGPEVKKPGASVKVSCEASGYTFTDFFVHWVRQAPGEGLVWLGWVNPLSGATKYAQNFQGRVTMTSDTSITTAYMALSSLRHDDTAVYYCTSQTSPYTPGAMGVWGQGTTVTVSS VL: DIRVTQSPASLSAFVGDRVTITCRASPAISGYLSWYQQKAGKAPKILIYDASNLYSGAPSRFSGSRSGTDFTLTITSLQPEDFATYYCQQTYNGLIAFGPGTKVEIK | 0.09 | 0.034 |  |  |  |  |
| ADI-18994 (antibody, V domains shown) VH: QVQLVQSGAEVKKPGASVKVSCKASGYTFTNYGFSWVRQAPGQGLEWMGWILTHNGYTNYAQKFQDRVTMKTDTSTSTVYMELRSLRSVDTAVYYCARIGHVTAVAGAPPDYWGQGTLVTVSS VL: QPVLTQPASVSGYQGQSITISCSGTSSDVGTYNLVSWYQQHPGKAPELMIYEGSKRPSGVSDRFSGSKSGNTASLTISGLQAEDEADYYCCSYVAGSTSVFGGGTKLTVL | 0.108 | 0.047 |  |  |  |  |
| ADI-18997 (antibody, V domains shown) VH: QVQLQQWGAGLLKPSETLSLTCAVSGGYFINDNWSWIRQSPGKGLEWIGEISHSGSTNYNPSLKSRLTISVDTSRQQFSLKLSSVTAADSGVYYCARVHPSYDFGWRFFDFWGQGTLVTVSS VL: ETTLTQSPATLSVSPGDTATLSCRASQTISSNLAWYQQKPGQPPSLLIYGASNRATGIPDRFRGSGSGTEFTLTISSLQSEDFAVYYCQQYAYWPPYTFGQGTKVEIK | > 10 | > 10 |  |  |  |  |
| ADI-19002 (antibody, V domains shown) VH: EVQLVESGPGLVKPSETLSLTCTVSGGSVSGHYWSWIRQFPGKELEWIGHIYYIGTTNYNPSLKSRVIISLDTSKNQLSLKLSSVTAADTAVYYCARQFGYDKNTLSRLDFDYWGQGTLVTVSS VL: DIQMTQSPSSLSASVRDRVTITCRASQSISSYLNWYQQRPGKAPKLLIYSAFSLHSGVPSRFSGSGSETEFTLTISSLQPDDFATYYCQQSYSIPWTFGQGTKVEIK | 4.51 | 2.89 |  |  |  |  |
| ADI-18979 (antibody, V domains shown) VH: EVQLLESGAEVKKPGASVKISCKASGYIFTSYGVSWVRQAPGQGLKWMGWISGYNGNTYYDQKFQGRVTMTTDTSTNTAYMELRSLTSDDTAVYYCARDSFSETGTGFPDFWGQGTLVTVSS VL: EIVLTQSPLSLPVTLGQPASISCRSSQSLEYSDGNTYLNWFQQRPGQSPRRLIYKVSNRDSGVPDRFSGSGSGTDFTLKISRVEAEDVGVYYCMQATHRPRTFGQGTKVDIK | 0.031 | 0.012 |  |  |  |  |
| ADI-18926 (antibody, V domains shown, full-length IgG from yeast; also called Antibody Number 280; Ab # 280) VH: EVQLVESGAEVKKPGASVKVSCQTSGYTFSHFGVTWIRQAPGQGLEWLGWISAYNGNTDYADKLQGRLTMTTDTSTNTAYMELRSLRSDDTAVYYCARDPPASAAAMLDYWGQGTLVTVSS VL: DIVMTQSPLSLAVTLGQPASISCKSSQGLEYTDGNTYLSWFQQRPGQSPRRLIYKISNRDSGVPDRFSGSGSGTDFTLRISRVEAEDVGVYYCMQGTHGRGISFGPGTKVDIK |  |  | 0.023 | 0.092 | 0.25 | 0.252 |
| ADI-18987 (antibody, V domains shown) VH: QVQLVQSGAEVKKPGSSVKVSCKASGGTFSGHAINWVRQAPGQGLEWMGGIIHIFGTVNYAPKFQGRVTITADASTGTVYMELSSLISEDTAVYYCARDAYEVWTGSYLPPFDDWGQGTLVTVSS VL: DIVMTQSPGTLSLSPGDRVTLSCRASQTVTSSYLAWYQQKPGQAPRLLIYGAFTRATGIPDRFSGSGSGTDFTLSISRLEPEDFAVYYCQQYGSSFLTFGGGTKVDIK | 0.027 | 0.015 |  |  |  |  |
| ADI-18996 (antibody, V domains shown) VH: QVQLVQSGAEVKRPGASVKVSCKASEYAFTAHYLHWVRQAPDQGLEWMGWISPKSGGTNYAQKFHGRVSMTSDTSISTVYMELSSLTSDDTAVYYCARSSLVGASPNFDFWGQGTLVTVSS VL: QSVVTQPPSVSAAPGQRVTISCSGSSSNIGNNYVSWYQQLPGSTPKVLIYDNNQRPSGIPDRFSGSKSGTSATLAISGLQTGDEAVYYCGTWDASLSAAMVFGGGTKLTVL | > 10 | > 10 |  |  |  |  |

— US20200223906A1 (Adimab, published 2020)
